Measured values published in patent US20100004431A1 (Xencor, published 2010).
Where a chain is given by its changes, count along the chain named. Names and notes keep the numbering of the source.

T1: CD25 (R&D systems cat. #223-2A/CF) (UniProt P01589 22-213, limits assumed)
T1 construct: Bought soluble protein
T1 sequence (looked up): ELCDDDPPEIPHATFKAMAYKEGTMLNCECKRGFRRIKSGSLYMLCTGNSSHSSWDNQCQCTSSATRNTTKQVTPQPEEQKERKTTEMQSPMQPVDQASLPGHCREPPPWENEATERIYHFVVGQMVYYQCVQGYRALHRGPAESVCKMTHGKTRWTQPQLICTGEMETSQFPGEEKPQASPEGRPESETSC

B1: anti-CD25 H1.12L1.48 (antibody, IgG1, V domains shown)
VH: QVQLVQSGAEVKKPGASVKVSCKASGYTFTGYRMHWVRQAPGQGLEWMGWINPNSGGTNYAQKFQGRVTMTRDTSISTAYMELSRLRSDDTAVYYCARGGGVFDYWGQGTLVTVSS
VL: EIVLTQSPATLSLSPGERATLSCRASQSVSYMHWYQQKPGQAPRLLIYTTSNRATGIPARFSGSGSGTDFTLTISSLEPEDFAVYYCHQRSTYPLTFGSGTKLEIK
notes: IgG1 format
B2: anti-CD25 H1.23L1.20 (antibody, V domains shown)
VH: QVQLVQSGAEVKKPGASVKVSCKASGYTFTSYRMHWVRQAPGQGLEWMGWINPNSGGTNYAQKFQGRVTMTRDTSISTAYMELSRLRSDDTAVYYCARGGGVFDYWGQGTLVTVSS
VL: B1 VL with M32L
B3: anti-CD25 H1.23L1.48 (antibody, V domains shown)
VH: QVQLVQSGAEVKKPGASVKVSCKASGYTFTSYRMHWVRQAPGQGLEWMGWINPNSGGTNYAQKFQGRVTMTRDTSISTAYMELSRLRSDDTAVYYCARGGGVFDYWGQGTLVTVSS
VL: B1 VL
B4: anti-CD25 H1.14L1.20 (antibody, IgG1, V domains shown)
VH: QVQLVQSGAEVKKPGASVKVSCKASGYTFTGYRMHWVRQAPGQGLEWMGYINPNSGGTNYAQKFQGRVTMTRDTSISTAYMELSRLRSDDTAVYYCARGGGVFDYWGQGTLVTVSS
VL: B1 VL with M32L
notes: IgG1 format
B5: anti-CD25 H1.22L1.43 (antibody, V domains shown)
VH: QVQLVQSGAEVKKPGASVKVSCKASGYTFTSYRMHWVRQAPGQGLEWMGWINPNSGGTNYAQKFQGRVTITRDTSISTAYMELSRLRSDDTAVYYCARGGGVFDYWGQGTLVTVSS
VL: B1 VL with M32L, F70Y, E78Q
B6: anti-CD25 H1.22L1.48 (antibody, V domains shown)
VH: B5 VH
VL: B1 VL
B7: anti-CD25 H1.23L1.56 (antibody, V domains shown)
VH: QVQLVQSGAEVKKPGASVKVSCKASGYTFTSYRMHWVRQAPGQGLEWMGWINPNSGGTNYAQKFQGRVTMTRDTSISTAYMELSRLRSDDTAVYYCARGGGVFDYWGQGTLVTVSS
VL: B1 VL with E1Q, M32L, Y35F, A42S, R44Q
B8: anti-CD25 H1.22L1.20 (antibody, V domains shown)
VH: B5 VH
VL: B1 VL with M32L
B9: anti-CD25 H1.22L1.56 (antibody, V domains shown)
VH: B5 VH
VL: B1 VL with E1Q, M32L, Y35F, A42S, R44Q
B10: anti-CD25 H1.14L1 (antibody, IgG1, V domains shown)
VH: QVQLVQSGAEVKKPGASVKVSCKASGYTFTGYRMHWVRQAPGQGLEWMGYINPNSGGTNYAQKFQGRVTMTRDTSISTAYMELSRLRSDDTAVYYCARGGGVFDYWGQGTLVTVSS
VL: QIVLTQSPATLSLSPGERATLSCRASSSISYMHWFQQKPGQSPQLLIYTTSNLASGVPARFSGSGSGTDYTLTISSLQPEDFAVYYCHQRSTYPLTFGSGTKLEIK
notes: IgG1 format
B11: anti-CD25 H1.22L1 (antibody, IgG1, V domains shown)
VH: B5 VH
VL: B10 VL
notes: IgG1 format
B12: anti-CD25 H1.23L1 (antibody, IgG1, V domains shown)
VH: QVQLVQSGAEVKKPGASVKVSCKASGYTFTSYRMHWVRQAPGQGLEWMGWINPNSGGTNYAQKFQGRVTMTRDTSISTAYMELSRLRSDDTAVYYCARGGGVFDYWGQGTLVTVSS
VL: B10 VL
notes: IgG1 format
B13: anti-CD25 H1.12L1 (antibody, IgG1, V domains shown)
VH: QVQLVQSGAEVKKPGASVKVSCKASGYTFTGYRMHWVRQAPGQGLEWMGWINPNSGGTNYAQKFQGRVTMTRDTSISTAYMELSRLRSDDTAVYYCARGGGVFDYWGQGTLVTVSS
VL: B10 VL
notes: IgG1 format
B14: Anti-TNFα H1.101L1.33 (Fab, V domains shown)
VH: EVQLVESGGGLVQPGGSLKLSCAASGFIFSNHWMNWVRQASGKGLEWVGEIRSKAINYATHYAESVKGRFTISRDDSKSTAYLQMNSLKTEDTAVYYCSRNYYGSTYDYWGQGTLVTVSS
VL: EIVLTQSPDFQSVTPKEKVTITCRASQFIGSSLHWYQQKPDQSPKLLIKYASESFSGVPSRFSGSGSGTDFTLTINSLEAEDAATYYCQQSHSWPFTFGSGTKLEIK
notes: Fab format
B15: Anti-TNFα H1.45L1.33 (Fab, V domains shown)
VH: B14 VH with T80I, A81V
VL: B14 VL
notes: Fab format
B16: Anti-TNFα H1.67L1.33 (Fab, V domains shown)
VH: B14 VH with I28T, N57S, E64A, S79N
VL: B14 VL
notes: Fab format
B17: anti-CD25 H1.1L1 (antibody, V domains shown)
VH: B5 VH with W50Y, N54S, S55T, G57Y, N59E, A61N, T74K
VL: B10 VL
notes: Single variant in the anti-CD25 H1L1 background; also called VH A71R single variant
B18: anti-CD25 H1L1.7 (antibody, V domains shown)
VH: B5 VH with W50Y, N54S, S55T, G57Y, N59E, A61N, R72A, T74K
VL: B10 VL with Q78E
notes: Single variant in the anti-CD25 H1L1 background; also called VL Q79E single variant
B19: anti-CD25 H1L1.5 (antibody, V domains shown)
VH: B5 VH with W50Y, N54S, S55T, G57Y, N59E, A61N, R72A, T74K
VL: B10 VL with Q1E
notes: Single variant in the anti-CD25 H1L1 background; also called VL Q1E single variant
B20: anti-CD25 H1L1.13 (antibody, V domains shown)
VH: B5 VH with W50Y, N54S, S55T, G57Y, N59E, A61N, R72A, T74K
VL: B10 VL with V57I
notes: Single variant in the anti-CD25 H1L1 background; also called VL V58I single variant
B21: anti-CD25 H1.4L1 (antibody, V domains shown)
VH: B5 VH with W50Y, N54S, S55T, G57Y, N59E, A61N, R72A
VL: B10 VL
notes: Single variant in the anti-CD25 H1L1 background; also called VH K73T single variant
B22: anti-CD25 H1L1.16 (antibody, V domains shown)
VH: B5 VH with W50Y, N54S, S55T, G57Y, N59E, A61N, R72A, T74K
VL: B10 VL with F35Y
notes: Single variant in the anti-CD25 H1L1 background; also called VL F36Y single variant
B23: anti-CD25 H1L1.14 (antibody, V domains shown)
VH: B5 VH with W50Y, N54S, S55T, G57Y, N59E, A61N, R72A, T74K
VL: B10 VL with Y70F
notes: Single variant in the anti-CD25 H1L1 background; also called VL Y71F single variant
B24: anti-CD25 H1L1.9 (antibody, V domains shown)
VH: B5 VH with W50Y, N54S, S55T, G57Y, N59E, A61N, R72A, T74K
VL: B10 VL with S42A
notes: Single variant in the anti-CD25 H1L1 background; also called VL S43A single variant
B25: anti-CD25 H1L1.6 (antibody, V domains shown)
VH: B5 VH with W50Y, N54S, S55T, G57Y, N59E, A61N, R72A, T74K
VL: B10 VL with Q44R
notes: Single variant in the anti-CD25 H1L1 background; also called VL Q45R single variant
B26: anti-VEGF H0L0 (Fab, V domains shown)
VH: EIQLVQSGPELKQPGETVRISCKASGYTFTNYGMNWVKQAPGKGLKWMGWINTYTGEPTYAADFKRRFTFSLETSASTAYLQISNLKNDDTATYFCAKYPHYYGSSHWYFDVWGAGTTVTVSS
VL: DIQMTQTTSSLSASLGDRVIISCSASQDISNYLNWYQQKPDGTVKVLIYFTSSLHSGVPSRFSGSGSGTDYSLTISNLEPEDIATYYCQQYSTVPWTFGGGTKLEIK
notes: also called anti-VEGF H0L0 (murine Fv); murine A4.6.1 Fv
B27: Anti-TNFα H1L1 (Fab, V domains shown)
VH: B14 VH with A55S, Y58S, T80I, A81V
VL: B14 VL with E1D, V3L, I29V, L33I, F55M, V58I
notes: Fab format, purified by Ni-NTA chromatography; also called framework optimized anti-TNFα H1L1

Each binder was assayed against T1, CD25 (R&D systems cat. #223-2A/CF) (assay: Biacore (SPR); antibody captured on Protein A, CD25 injected).
Description: (§1) Binding was measured by injection of two-fold serial dilutions of CD25 (0 nM to 50 nM; R&D systems) in buffer at 25° C. with a flow rate of 25-30 μL/min for 2 min followed by a dissociation phase of 4-5 min. Association rates (kₒₙ) and dissociation rates (koff) were calculated using a simple one-to-one Langmuir binding model (BIAcore Evaluation Software version 3.2). The equilibrium dissociation constant (Kd) was calculated as the ratio of koff/kₒₙ).

Fold change in Kd vs. H0L0 | Kd | koff | kon | Binder
1.7 fold | 0.15 nM | 0.00012 s⁻¹ | 800000 M⁻¹ s⁻¹ | B1
1.2 fold | 0.22 nM | 0.00016 s⁻¹ | 710000 M⁻¹ s⁻¹ | B2
1.1 fold | 0.23 nM | 0.00018 s⁻¹ | 750000 M⁻¹ s⁻¹ | B3
-1.9 fold | 0.49 nM | 0.00029 s⁻¹ | 580000 M⁻¹ s⁻¹ | B4
-1.1 fold | 0.3 nM | 0.00019 s⁻¹ | 640000 M⁻¹ s⁻¹ | B5
1.5 fold | 0.17 nM | 0.00014 s⁻¹ | 780000 M⁻¹ s⁻¹ | B6
1.2 fold | 0.21 nM | 0.0002 s⁻¹ | 950000 M⁻¹ s⁻¹ | B7
1.1 fold | 0.24 nM | 0.00018 s⁻¹ | 720000 M⁻¹ s⁻¹ | B8
1.2 fold | 0.22 nM | 0.00022 s⁻¹ | 970000 M⁻¹ s⁻¹ | B9
-1.4 fold | 0.36 nM | 0.00028 s⁻¹ | 770000 M⁻¹ s⁻¹ | B10
1.5 fold | 0.18 nM | 0.00017 s⁻¹ | 980000 M⁻¹ s⁻¹ | B11
1.3 fold | 0.2 nM | 0.00019 s⁻¹ | 950000 M⁻¹ s⁻¹ | B12
2.3 fold | 0.11 nM | 0.00012 s⁻¹ | 1.1e+06 M⁻¹ s⁻¹ | B13

What follows are binders tested against T2, TNFα (UniProt P01375 77-233) (assay: SPR (Biacore), TNFα on CM5 chip, Fab injected).
T2 sequence (P01375 77-233 limits assumed): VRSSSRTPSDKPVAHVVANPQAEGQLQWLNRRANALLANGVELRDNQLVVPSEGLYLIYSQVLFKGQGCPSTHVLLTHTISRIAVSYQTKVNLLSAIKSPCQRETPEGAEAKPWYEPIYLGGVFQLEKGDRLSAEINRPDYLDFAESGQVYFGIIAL
Description: (§2) For kinetic analysis of anti-TNFα antibodies, TNFα was coupled to an activated CM5 biosensor chip using standard NHS-EDC chemistry by injecting 200 nM TNFα at a flow rate of 2 μL/min for 10 min. […] For subsequent cycles, the chip was regenerated using pH4.0 acetate buffer. Association rates (kₒₙ) and dissociation rates (koff) were calculated using a simple one-to-one Langmuir binding model (BIAcore Evaluation Software version 3.2). The equilibrium dissociation constant (Kd) was calculated as the ratio of koff/kₒₙ.

fold difference in affinity against the chimeric antibody anti-TNFα H0L0 | Binder
≤ 3 fold | B14
≤ 3 fold | B15
≤ 3 fold | B16

Target: T1, CD25 (R&D systems cat. #223-2A/CF)
Experiment: Biacore (SPR); antibody captured on Protein A, CD25 injected
Remark: another data set of the same source
Description: as §1

Fold change in Kd vs. H1L1 | Kd | koff | kon | Binder
2 fold | 0.16 nM | 0.00031 s⁻¹ | 1.9e+06 M⁻¹ s⁻¹ | B17
1.2 fold | 0.28 nM | 0.00054 s⁻¹ | 2e+06 M⁻¹ s⁻¹ | B18
1.1 fold | 0.29 nM | 0.00052 s⁻¹ | 1.8e+06 M⁻¹ s⁻¹ | B19
-1.1 fold | 0.35 nM | 0.0006 s⁻¹ | 1.7e+06 M⁻¹ s⁻¹ | B20
1.1 fold | 0.3 nM | 0.0006 s⁻¹ | 2e+06 M⁻¹ s⁻¹ | B21
1.2 fold | 0.26 nM | 0.00042 s⁻¹ | 1.6e+06 M⁻¹ s⁻¹ | B22
1.2 fold | 0.27 nM | 0.00048 s⁻¹ | 1.8e+06 M⁻¹ s⁻¹ | B23
1 fold | 0.31 nM | 0.00058 s⁻¹ | 1.9e+06 M⁻¹ s⁻¹ | B24
1 fold | 0.32 nM | 0.00057 s⁻¹ | 1.8e+06 M⁻¹ s⁻¹ | B25

Each binder was assayed against VEGF (UniProt P15692-4 27-191, limits assumed) (assay: Biacore (SPR); Fab injected over immobilized VEGF).
Sequence of VEGF (P15692 other isoform, or with tags, fused parts or gaps limits assumed): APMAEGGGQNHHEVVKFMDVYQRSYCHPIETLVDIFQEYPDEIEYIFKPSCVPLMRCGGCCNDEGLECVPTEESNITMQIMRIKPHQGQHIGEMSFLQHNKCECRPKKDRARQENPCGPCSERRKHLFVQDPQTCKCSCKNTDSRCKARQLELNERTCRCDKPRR
Description: For kinetic analysis of anti-VEGF antibodies, VEGF was coupled to an activated CM5 biosensor chip using standard NHS-EDC chemistry by injecting 200 nM VEGF at a flow rate of 2 μL/min for 10 min. […] Association rates (kₒₙ) and dissociation rates (koff) were calculated using a simple one-to-one Langmuir binding model (BIAcore Evaluation Software version 3.2). The equilibrium dissociation constant (Kd) was calculated as the ratio of koff/kₒₙ.

Kd | koff | kon | Binder
1.4 nM | 0.00017 s⁻¹ | 134000 M⁻¹ s⁻¹ | B26

These binders were tested against T1, CD25 (R&D systems cat. #223-2A/CF) (assay: SPR (Biacore)).
Description: as §1

fold tighter binding than anti-CD25 H1L1 | Binder
5.9 fold | B1
1.8 fold | B4
2.4 fold | B10
4.9 fold | B11
4.4 fold | B12
8 fold | B13

The binders below were run against T2, TNFα (assay: SPR (Biacore), TNFα on CM5 chip, Fab injected; mean of two runs ± SD).
Description: as §2

Kd | koff | kon | Binder
3.9 nM | 0.000874 s⁻¹ | 223000 M⁻¹ s⁻¹ | B14
1.8 nM | 0.00087 s⁻¹ | 489000 M⁻¹ s⁻¹ | B15
1.9 nM | 0.00116 s⁻¹ | 605000 M⁻¹ s⁻¹ | B27
3.8 nM | 0.000776 s⁻¹ | 200000 M⁻¹ s⁻¹ | B16
